Five molecules from patent US20210261668A1 (DRAGONFLY THERAPEUTICS, published 2021) can be followed below.

Residue numbers refer to the chain shown, from its start.

Sequences and labels used below:
B1: ADI-27744 (antibody, V domains shown)
VH: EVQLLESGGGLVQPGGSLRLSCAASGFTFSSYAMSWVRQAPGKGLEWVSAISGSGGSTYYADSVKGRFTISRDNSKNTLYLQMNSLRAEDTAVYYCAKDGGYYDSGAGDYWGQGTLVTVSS
VL: DIQMTQSPSSVSASVGDRVTITCRASQGIDSWLAWYQQKPGKAPKLLIYAASSLQSGVPSRFSGSGSGTDFTLTISSLQPEDFATYYCQQGVSYPRTFGGGTKVEIK
notes: also called A44
B2: ADI-27749 (antibody, V domains shown)
VH: EVQLVESGGGLVKPGGSLRLSCAASGFTFSSYSMNWVRQAPGKGLEWVSSISSSSSYIYYADSVKGRFTISRDNAKNSLYLQMNSLRAEDTAVYYCARGAPMGAAAGWFDPWGQGTLVTVSS
VL: B1 VL with D30S, Y94F
notes: also called A49
B3: ADI-27724 (antibody, V domains shown)
VH: QVQLQQWGAGLLKPSETLSLTCAVYGGSFSGYYWSWIRQPPGKGLEWIGEIDHSGSTNYNPSLKSRVTISVDTSKNQFSLKLSSVTAADTAVYYCARARGPWSFDPWGQGTLVTVSS
VL: not shown
B4: ADI-29379 (antibody, V domains shown)
VH: QVQLVQSGAEVKKPGASVKVSCKASGYTFTSYYMHWVRQAPGQGLEWMGIINPSGGSTSYAQKFQGRVTMTRDTSTSTVYMELSSLRSEDTAVYYCARGAPNYGDTTHDYYYMDVWGKGTTVTVSS
VL: EIVMTQSPATLSVSPGERATLSCRASQSVSSNLAWYQQKPGQAPRLLIYGASTRATGIPARFSGSGSGTEFTLTISSLQSEDFAVYYCQQYDDWPFTFGGGTKVEIK
notes: also called E79
B5: ADI-29378 (antibody, V domains shown)
VH: QVQLVQSGAEVKKPGASVKVSCKASGYTFTSYYMHWVRQAPGQGLEWMGIINPSGGSTSYAQKFQGRVTMTRDTSTSTVYMELSSLRSEDTAVYYCAREGAGFAYGMDYYYMDVWGKGTTVTVSS
VL: B4 VL with M4L, V13L, N32Y, G50D, T53N, E70D, Q79E, S80P, Y91S, D93N
notes: also called E78

One assay addresses T1, cynomolgus NKG2D-Fc fusion protein (cynomolgus; human, UniProt P61252 73-216).
T1 construct: extracellular domain; also called cynomolgus recombinant NKG2D-Fc; cynomolgus recombinant NKG2D; not shown: human IgG1 Fc domain
T1 sequence (looked up): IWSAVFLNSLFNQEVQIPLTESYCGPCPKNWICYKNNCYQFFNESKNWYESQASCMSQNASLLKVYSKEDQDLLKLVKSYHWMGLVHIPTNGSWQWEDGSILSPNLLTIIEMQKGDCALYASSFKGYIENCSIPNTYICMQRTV
Put plainly: ELISA on coated NKG2D-Fc. Background: ELISA stands for enzyme-linked immunosorbent assay.
In the case of B1, the binding result is “binds”.
In the case of B2, the binding result is listed as “binds”.
On the same count and under the same terms, as for B3, the entry is “binds”; as for B4, “binds”; as for B5, “binds”.

The next assay deals with T2, human NKG2D-Fc fusion protein (human, UniProt P26718 73-216).
T2 construct: extracellular domain; also called recombinant human NKG2D-Fc; human recombinant NKG2D; not shown: human IgG1 Fc domain
T2 sequence (looked up): T1 sequence (looked up) with N43D, I133T
Put plainly: ELISA on coated NKG2D-Fc.
On to B1, for which the binding result is on record as “binds”.
As to B2, the binding result is reported as “binds”.
The same measure, in the same setting: in the case of B3 it was “binds”.
On the same count and under the same terms, in the case of B4 it was “binds”.
Consider B5, for which the binding result is “binds”.

The next assay deals with T3, mouse NKG2D-Fc fusion protein (mouse; human, UniProt O54709 90-232).
T3 construct: extracellular domain; also called mouse recombinant NKG2D-Fc; recombinant mouse NKG2D-Fc; not shown: human IgG1 Fc domain
T3 sequence (looked up): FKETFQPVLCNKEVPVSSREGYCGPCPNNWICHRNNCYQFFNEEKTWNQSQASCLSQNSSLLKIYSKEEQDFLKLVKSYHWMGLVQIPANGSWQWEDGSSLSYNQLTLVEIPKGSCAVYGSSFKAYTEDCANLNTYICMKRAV
Put plainly: ELISA on coated NKG2D-Fc.
In the case of B1, the binding result was “binds”.
Same read-out and setting: in the case of B2 it was “binds”; in that of B3, “binds”; in that of B4, “binds”.
B5: the binding result is “binds”.
